In the supplement of paper PMC7877785:
± gives the uncertainty stated by the source.

Experiment: self-splicing fitness, log relative to wild type (ln ratio); higher = more splicing; Tetrahymena group I intron in knt gene, E. coli kanamycin selection, DiMSum; sequences stand for … in CUCUCU…GGAGGGAAAAGUUAUCAGGCAUGCACCUGGUAGCUAGUCUUUAAACCAAUAGAUUGCAUCGGUUUAAAAGGCAAGACCGUCAAAUUGCGGGAAAGGGGUCAACAGCCGUUCAGUACCAAGUCUCAGGGGAAACUUUGAGAUGGCCUUGCAAAGGGUAUGGUAAUAAGCUGACGGACAUGGUCCUAACCACGCAGCCAAGUCCUAAGUCAACAGAUCUUCUGUUGAUAUGGAUGCAGUUCACAGACUAAAUGUCGGUCGGGGAAGAUGUAUUCUUCUCAUAAGAUAUAGUCGGACCUCUCCUUAAUGGGAGCUAGCGGAUGAAGUGAUGCAACACUGGAGCCGCUGGGAACUAAUUUGUAUGCGAAAGUAUAUUGAUUAGUUUUGGAGUACUCGUGGUCG
Procedure, shortened: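 A randomised library covering all eight P1ex-region intron nucleotides was built with the intron in the knt kanamycin-resistance gene on pET-22b(+) and held in E. coli BL21(DE3). Cells were grown overnight at 37°C or 30°C on LB agar, with or without 25 μg/mL kanamycin, plus 100 μg/mL carbenicillin, 50 μM IPTG and 0.2% rhamnose, and pooled colonies were amplicon-sequenced on an Illumina HiSeq 2500. DiMSum fitness is the error-weighted combination of wild-type-normalised replicate fold changes, kanamycin versus none.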

Sequence	self-splicing fitness (ln) (30 °C)	self-splicing fitness (ln) (37 °C)
CGUAAGCAAUAUUACGCUCA	-1.2 ± 0.2	-0.106 ± 0.18
CGUAAGCAAUAUUACGCUGC	–	-2.3 ± 0.39
CGUAAGCAAUAUUACGGACG	-2.45 ± 0.12	-1.89 ± 0.14
CGUAAGCAAUAUUACGGAUC	-3.4 ± 0.23	-3.44 ± 0.37
CGUAAGCAAUAUUACGGCCA	-2.86 ± 0.42	-1.74 ± 0.21
CGUAAGCAAUAUUACGGGAU	-3.63 ± 0.18	-3.29 ± 0.35
CGUAAGCAAUAUUACGGGUC	-4.24 ± 0.28	-2.45 ± 0.2
CGUAAGCAAUAUUACGGGUG	-1.64 ± 0.057	-0.924 ± 0.057
CGUAAGCAAUAUUACGUAUC	-3.12 ± 0.24	-3.6 ± 0.24
CGUAAGCAAUAUUACGUCUG	-0.285 ± 0.085	0.29 ± 0.1
CGUAAGCAAUAUUACGUUAC	-3.56 ± 0.26	-2.03 ± 0.28
CGUAAGCAAUAUUACGUUCA	-1.64 ± 0.14	-0.74 ± 0.13
CGUAAGCAAUAUUACGUUCU	-1.61 ± 0.13	-0.0321 ± 0.12
CGUCAGCAAUAUUACGAACC	-1.37 ± 0.41	0.157 ± 0.37
CGUCAGCAAUAUUACGAAGU	-3.92 ± 0.19	-2.94 ± 0.21
CGUCAGCAAUAUUACGAGAG	-2.91 ± 0.15	-2.76 ± 0.25
CGUCAGCAAUAUUACGCAGU	-2.96 ± 0.2	-2.12 ± 0.18
CGUCAGCAAUAUUACGCAUA	-2.88 ± 0.32	-2.59 ± 0.19
CGUCAGCAAUAUUACGCCUU	–	-1.94 ± 0.2
CGUCAGCAAUAUUACGCGAA	-2.93 ± 0.21	-2.51 ± 0.19
CGUCAGCAAUAUUACGCGGG	-3.87 ± 0.24	-2.94 ± 0.21
CGUCAGCAAUAUUACGCUGC	-2.95 ± 0.26	-2.22 ± 0.35
CGUCAGCAAUAUUACGCUGU	-4.26 ± 0.33	-1.51 ± 0.27
CGUCAGCAAUAUUACGGAAA	-2.57 ± 0.3	-2.38 ± 0.37

Sequence	self-splicing fitness (ln) (30 °C)	self-splicing fitness (ln) (37 °C)
CGUCAGCAAUAUUACGGACG	-3.63 ± 0.32	-1.95 ± 0.23
CGUCAGCAAUAUUACGGAUA	-1.02 ± 0.079	-0.231 ± 0.086
CGUCAGCAAUAUUACGGCCG	-0.623 ± 0.12	0.482 ± 0.15
CGUCAGCAAUAUUACGUAUU	-2.83 ± 0.13	-1.84 ± 0.14
CGUCAGCAAUAUUACGUCCA	-1.97 ± 0.085	-1.36 ± 0.11
CGUCAGCAAUAUUACGUCUC	-2.87 ± 0.24	-0.999 ± 0.14
CGUCAGCAAUAUUACGUCUG	-0.234 ± 0.062	0.106 ± 0.08
CGUCAGCAAUAUUACGUGAC	-3.29 ± 0.18	-2.82 ± 0.23
CGUCAGCAAUAUUACGUGGA	-3.65 ± 0.24	-0.946 ± 0.17
CGUCAGCAAUAUUACGUGGG	-2.31 ± 0.093	-1.7 ± 0.1
CGUCAGCAAUAUUACGUUAC	-2.78 ± 0.21	-3.22 ± 0.24
CGUCAGCAAUAUUACGUUUC	-3 ± 0.14	-3.06 ± 0.21
CGUGAGCAAUAUUACGAAAC	–	-0.708 ± 0.31
CGUGAGCAAUAUUACGAAAG	-1.89 ± 0.17	-0.94 ± 0.16
CGUGAGCAAUAUUACGAAGG	-2.37 ± 0.14	-1.42 ± 0.14
CGUGAGCAAUAUUACGAUCA	-2.06 ± 0.14	-0.309 ± 0.12
CGUGAGCAAUAUUACGCGCA	-0.962 ± 0.38	-0.382 ± 0.27
CGUGAGCAAUAUUACGCGUU	-3.11 ± 0.28	-2.72 ± 0.2
CGUGAGCAAUAUUACGGACC	-2.51 ± 0.49	–
CGUGAGCAAUAUUACGGCAG	-0.858 ± 0.11	-0.441 ± 0.14
CGUGAGCAAUAUUACGGCGU	-2.44 ± 0.18	-1.32 ± 0.17
CGUGAGCAAUAUUACGGGCA	-1.6 ± 0.12	-1.63 ± 0.16
CGUGAGCAAUAUUACGGGUC	-4 ± 0.24	-2.2 ± 0.19
CGUGAGCAAUAUUACGUAAC	-3.13 ± 0.39	-2.78 ± 0.43
